In this assay the target is Recombinant Human Vascular Endothelial Growth Factor (rhVEGF) (human, UniProt P15692-4 27-191, limits assumed). Kind of assay: cell-based or functional assay.
Sequence of Recombinant Human Vascular Endothelial Growth Factor (rhVEGF) (P15692 other isoform, or with tags, fused parts or gaps limits assumed): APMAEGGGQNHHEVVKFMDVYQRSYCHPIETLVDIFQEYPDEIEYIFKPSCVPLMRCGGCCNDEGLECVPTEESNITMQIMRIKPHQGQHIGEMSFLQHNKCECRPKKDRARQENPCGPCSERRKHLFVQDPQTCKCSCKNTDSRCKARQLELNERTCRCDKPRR

B1: 20 kDa-Cys-Flt-1(3) N164C (receptor)
chain: SKLKDPELSLKGTQHIMQAGQTLHLQCRGEAAHKWSLPEMVSKESERLSITKSACGRNGKQFCSTLTLNTAQANHTGFYSCKYLAVPTSKKKETESAIYIFISDTGRPFVEMYSEIPEIIHMTEGRELVIPCRVTSPCITVTLKKFPLDTLIPDGKRIIWDSRKGFIISNATYKEIGLLTCEATVNGHLYKTNYLTHRQTNTIIDVQISTPRPVKLLRGHTLVLNCTATTPLNTRVQMTWSYPDEKNKRASVRRRIDQSNSHANIFYSVLTIDKMQNKDKGLYTCRVRSGPSFKSVNTSVHIYDKAFITVKH
modifications: 20 kDa maleimide-PEG on Cys 164
In the case of B1, the “Ave Ec50's (ng/ml); inhibition of VEGF-stimulated HUVEC proliferation, BrdU Cell Proliferation assay” value (shortened to “Ave Ec50's (ng/ml); inhibition”) turned out to be 75 ng/mL.

B2: 20 kDa-Cys-Flt-1(3) H338C (receptor)
chain: SKLKDPELSLKGTQHIMQAGQTLHLQCRGEAAHKWSLPEMVSKESERLSITKSACGRNGKQFCSTLTLNTAQANHTGFYSCKYLAVPTSKKKETESAIYIFISDTGRPFVEMYSEIPEIIHMTEGRELVIPCRVTSPNITVTLKKFPLDTLIPDGKRIIWDSRKGFIISNATYKEIGLLTCEATVNGHLYKTNYLTHRQTNTIIDVQISTPRPVKLLRGHTLVLNCTATTPLNTRVQMTWSYPDEKNKRASVRRRIDQSNSHANIFYSVLTIDKMQNKDKGLYTCRVRSGPSFKSVNTSVHIYDKAFITVKC
modifications: 20 kDa maleimide-PEG on Cys 338
As for B2, the “Ave Ec50's (ng/ml); inhibition” value was determined as 19 ng/mL.

B3: 20 kDa-Cys-Flt-1(3) N100C (receptor)
chain: SKLKDPELSLKGTQHIMQAGQTLHLQCRGEAAHKWSLPEMVSKESERLSITKSACGRNGKQFCSTLTLNTAQACHTGFYSCKYLAVPTSKKKETESAIYIFISDTGRPFVEMYSEIPEIIHMTEGRELVIPCRVTSPNITVTLKKFPLDTLIPDGKRIIWDSRKGFIISNATYKEIGLLTCEATVNGHLYKTNYLTHRQTNTIIDVQISTPRPVKLLRGHTLVLNCTATTPLNTRVQMTWSYPDEKNKRASVRRRIDQSNSHANIFYSVLTIDKMQNKDKGLYTCRVRSGPSFKSVNTSVHIYDKAFITVKH
modifications: 20 kDa maleimide-PEG on Cys 100
In the case of B3, the “Ave Ec50's (ng/ml); inhibition” value was found to be 66 ng/mL.

B4: sFlt-1(3) D31C (receptor)
chain: SKLKCPELSLKGTQHIMQAGQTLHLQCRGEAAHKWSLPEMVSKESERLSITKSACGRNGKQFCSTLTLNTAQANHTGFYSCKYLAVPTSKKKETESAIYIFISDTGRPFVEMYSEIPEIIHMTEGRELVIPCRVTSPNITVTLKKFPLDTLIPDGKRIIWDSRKGFIISNATYKEIGLLTCEATVNGHLYKTNYLTHRQTNTIIDVQISTPRPVKLLRGHTLVLNCTATTPLNTRVQMTWSYPDEKNKRASVRRRIDQSNSHANIFYSVLTIDKMQNKDKGLYTCRVRSGPSFKSVNTSVHIYDKAFITVKH
Consider B4, for which the “Ave Ec50's (ng/ml); inhibition” value stood at 60 ng/mL.

B5: sFlt-1(3) N196C (receptor)
chain: SKLKDPELSLKGTQHIMQAGQTLHLQCRGEAAHKWSLPEMVSKESERLSITKSACGRNGKQFCSTLTLNTAQANHTGFYSCKYLAVPTSKKKETESAIYIFISDTGRPFVEMYSEIPEIIHMTEGRELVIPCRVTSPNITVTLKKFPLDTLIPDGKRIIWDSRKGFIISCATYKEIGLLTCEATVNGHLYKTNYLTHRQTNTIIDVQISTPRPVKLLRGHTLVLNCTATTPLNTRVQMTWSYPDEKNKRASVRRRIDQSNSHANIFYSVLTIDKMQNKDKGLYTCRVRSGPSFKSVNTSVHIYDKAFITVKH
For B5, the “Ave Ec50's (ng/ml); inhibition” value worked out at 88 ng/mL.

B6: 20 kDa-Cys-Flt-1(3) N196C (receptor)
chain: SKLKDPELSLKGTQHIMQAGQTLHLQCRGEAAHKWSLPEMVSKESERLSITKSACGRNGKQFCSTLTLNTAQANHTGFYSCKYLAVPTSKKKETESAIYIFISDTGRPFVEMYSEIPEIIHMTEGRELVIPCRVTSPNITVTLKKFPLDTLIPDGKRIIWDSRKGFIISCATYKEIGLLTCEATVNGHLYKTNYLTHRQTNTIIDVQISTPRPVKLLRGHTLVLNCTATTPLNTRVQMTWSYPDEKNKRASVRRRIDQSNSHANIFYSVLTIDKMQNKDKGLYTCRVRSGPSFKSVNTSVHIYDKAFITVKH
modifications: 20 kDa maleimide-PEG on Cys 196
B6: the “Ave Ec50's (ng/ml); inhibition” value was 59 ng/mL.

B7: 20 kDa-Cys-Flt-1(3) N323C (receptor)
chain: SKLKDPELSLKGTQHIMQAGQTLHLQCRGEAAHKWSLPEMVSKESERLSITKSACGRNGKQFCSTLTLNTAQANHTGFYSCKYLAVPTSKKKETESAIYIFISDTGRPFVEMYSEIPEIIHMTEGRELVIPCRVTSPNITVTLKKFPLDTLIPDGKRIIWDSRKGFIISNATYKEIGLLTCEATVNGHLYKTNYLTHRQTNTIIDVQISTPRPVKLLRGHTLVLNCTATTPLNTRVQMTWSYPDEKNKRASVRRRIDQSNSHANIFYSVLTIDKMQNKDKGLYTCRVRSGPSFKSVCTSVHIYDKAFITVKH
modifications: 20 kDa maleimide-PEG on Cys 323
With B7, the “Ave Ec50's (ng/ml); inhibition” value was found to be 40 ng/mL.

B8: sFlt-1(3) N323C (receptor)
chain: SKLKDPELSLKGTQHIMQAGQTLHLQCRGEAAHKWSLPEMVSKESERLSITKSACGRNGKQFCSTLTLNTAQANHTGFYSCKYLAVPTSKKKETESAIYIFISDTGRPFVEMYSEIPEIIHMTEGRELVIPCRVTSPNITVTLKKFPLDTLIPDGKRIIWDSRKGFIISNATYKEIGLLTCEATVNGHLYKTNYLTHRQTNTIIDVQISTPRPVKLLRGHTLVLNCTATTPLNTRVQMTWSYPDEKNKRASVRRRIDQSNSHANIFYSVLTIDKMQNKDKGLYTCRVRSGPSFKSVCTSVHIYDKAFITVKH
Take B8: the “Ave Ec50's (ng/ml); inhibition” value came to 32 ng/mL.

B9: sFlt-1(3) N100C (receptor)
chain: SKLKDPELSLKGTQHIMQAGQTLHLQCRGEAAHKWSLPEMVSKESERLSITKSACGRNGKQFCSTLTLNTAQACHTGFYSCKYLAVPTSKKKETESAIYIFISDTGRPFVEMYSEIPEIIHMTEGRELVIPCRVTSPNITVTLKKFPLDTLIPDGKRIIWDSRKGFIISNATYKEIGLLTCEATVNGHLYKTNYLTHRQTNTIIDVQISTPRPVKLLRGHTLVLNCTATTPLNTRVQMTWSYPDEKNKRASVRRRIDQSNSHANIFYSVLTIDKMQNKDKGLYTCRVRSGPSFKSVNTSVHIYDKAFITVKH
In the case of B9, the “Ave Ec50's (ng/ml); inhibition” value was 53 ng/mL.

B10: 20 kDa-Cys-Flt-1(3) D31C (receptor)
chain: SKLKCPELSLKGTQHIMQAGQTLHLQCRGEAAHKWSLPEMVSKESERLSITKSACGRNGKQFCSTLTLNTAQANHTGFYSCKYLAVPTSKKKETESAIYIFISDTGRPFVEMYSEIPEIIHMTEGRELVIPCRVTSPNITVTLKKFPLDTLIPDGKRIIWDSRKGFIISNATYKEIGLLTCEATVNGHLYKTNYLTHRQTNTIIDVQISTPRPVKLLRGHTLVLNCTATTPLNTRVQMTWSYPDEKNKRASVRRRIDQSNSHANIFYSVLTIDKMQNKDKGLYTCRVRSGPSFKSVNTSVHIYDKAFITVKH
modifications: 20 kDa maleimide-PEG on Cys 31
B10: the “Ave Ec50's (ng/ml); inhibition” value turned out to be 80 ng/mL.

B11: Wild type sFlt-1(3) (receptor)
chain: SKLKDPELSLKGTQHIMQAGQTLHLQCRGEAAHKWSLPEMVSKESERLSITKSACGRNGKQFCSTLTLNTAQANHTGFYSCKYLAVPTSKKKETESAIYIFISDTGRPFVEMYSEIPEIIHMTEGRELVIPCRVTSPNITVTLKKFPLDTLIPDGKRIIWDSRKGFIISNATYKEIGLLTCEATVNGHLYKTNYLTHRQTNTIIDVQISTPRPVKLLRGHTLVLNCTATTPLNTRVQMTWSYPDEKNKRASVRRRIDQSNSHANIFYSVLTIDKMQNKDKGLYTCRVRSGPSFKSVNTSVHIYDKAFITVKH
Turning to B11, the “Ave Ec50's (ng/ml); inhibition” value came to 36 ng/mL.

B12: sFlt-1(3) H338C (receptor)
chain: SKLKDPELSLKGTQHIMQAGQTLHLQCRGEAAHKWSLPEMVSKESERLSITKSACGRNGKQFCSTLTLNTAQANHTGFYSCKYLAVPTSKKKETESAIYIFISDTGRPFVEMYSEIPEIIHMTEGRELVIPCRVTSPNITVTLKKFPLDTLIPDGKRIIWDSRKGFIISNATYKEIGLLTCEATVNGHLYKTNYLTHRQTNTIIDVQISTPRPVKLLRGHTLVLNCTATTPLNTRVQMTWSYPDEKNKRASVRRRIDQSNSHANIFYSVLTIDKMQNKDKGLYTCRVRSGPSFKSVNTSVHIYDKAFITVKC
With B12, the “Ave Ec50's (ng/ml); inhibition” value is 55 ng/mL.

B13: sFlt-1(3) G26C (receptor)
chain: CSKLKDPELSLKGTQHIMQAGQTLHLQCRGEAAHKWSLPEMVSKESERLSITKSACGRNGKQFCSTLTLNTAQANHTGFYSCKYLAVPTSKKKETESAIYIFISDTGRPFVEMYSEIPEIIHMTEGRELVIPCRVTSPNITVTLKKFPLDTLIPDGKRIIWDSRKGFIISNATYKEIGLLTCEATVNGHLYKTNYLTHRQTNTIIDVQISTPRPVKLLRGHTLVLNCTATTPLNTRVQMTWSYPDEKNKRASVRRRIDQSNSHANIFYSVLTIDKMQNKDKGLYTCRVRSGPSFKSVNTSVHIYDKAFITVKH
For the molecule B13, the “Ave Ec50's (ng/ml); inhibition” value is 43 ng/mL.

B14: 20 kDa-Cys-Flt-1(3) G26C (receptor)
chain: CSKLKDPELSLKGTQHIMQAGQTLHLQCRGEAAHKWSLPEMVSKESERLSITKSACGRNGKQFCSTLTLNTAQANHTGFYSCKYLAVPTSKKKETESAIYIFISDTGRPFVEMYSEIPEIIHMTEGRELVIPCRVTSPNITVTLKKFPLDTLIPDGKRIIWDSRKGFIISNATYKEIGLLTCEATVNGHLYKTNYLTHRQTNTIIDVQISTPRPVKLLRGHTLVLNCTATTPLNTRVQMTWSYPDEKNKRASVRRRIDQSNSHANIFYSVLTIDKMQNKDKGLYTCRVRSGPSFKSVNTSVHIYDKAFITVKH
modifications: 20 kDa maleimide-PEG on Cys 26
For the molecule B14, the “Ave Ec50's (ng/ml); inhibition” value came out at 54 ng/mL.

B15: Wild type sFlt-1(fl) (receptor)
chain: SKLKDPELSLKGTQHIMQAGQTLHLQCRGEAAHKWSLPEMVSKESERLSITKSACGRNGKQFCSTLTLNTAQANHTGFYSCKYLAVPTSKKKETESAIYIFISDTGRPFVEMYSEIPEIIHMTEGRELVIPCRVTSPNITVTLKKFPLDTLIPDGKRIIWDSRKGFIISNATYKEIGLLTCEATVNGHLYKTNYLTHRQTNTIIDVQISTPRPVKLLRGHTLVLNCTATTPLNTRVQMTWSYPDEKNKRASVRRRIDQSNSHANIFYSVLTIDKMQNKDKGLYTCRVRSGPSFKSVNTSVHIYDKAFITVKHRKQQVLETVAGKRSYRLSMKVKAFPSPEVVWLKDGLPATEKSARYLTRGYSLIIKDVTEEDAGNYTILLSIKQSNVFKNLTATLIVNVKPQIYEKAVSSFPDPALYPLGSRQILTCTAYGIPQPTIKWFWHPCNHNHSEARCDFCSNNEESFILDADSNMGNRIESITQRMAIIEGKNKMASTLVVADSRISGIYICIASNKVGTVGRNISFYITDVPNGFHVNLEKMPTEGEDLKLSCTVNKFLYRDVTWILLRTVNNRTMHYSISKQKMAITKEHSITLNLTIMNVSLQDSGTYACRARNVYTGEEILQKKEITIR
B15: the “Ave Ec50's (ng/ml); inhibition” value amounted to 76 ng/mL.

The values above are taken from patent US20090163411A1 (BOLDER BIOTECHNOLOGY, published 2009).
